Measured values published in US10618964B2, “Nanobody against IL-6R” (Ablynx N.V., dated 2020).

Tests used:
[1] = target: T1, native soluble IL-6R in human plasma (human, UniProt P08887); test: ELISA 1, periplasmic extract; competitor IL-6; human plasma
Experimental: (§1) In this ELISA, plasma was used as a source of native soluble IL-6R. By this assay, we aimed to confirm the alphascreen results and to get a view on the cross-reactivity of the clones towards cynomolgous IL-6R. Human plasma (ELISA 1 and ELISA 3) or cynomolgous plasma (ELISA 2) were pre-incubated with a dilution of the periplasmic extract of the clones together with human IL-6 (50 ng/mL). Subsequently, plasma soluble IL-6R was captured on a B-N12 coated plate and bound IL-6 was detected using anti-IL-6 antibody BAF206 and streptavidin-HRP (ELISA 1 and ELISA 2). The ELISA signal dropped when the Nanobody clone could compete with IL-6 for binding to soluble IL-6R. ELISA 3 was a parallel ELISA in which the detection antibody was replaced by anti-IL-6R antibody BAF227 to exclude false positive competitors, which actually compete with B-N12 (e.g. family 2). Depicted in Table C-5 is the ratio of the OD450 value of the test sample versus the blank OD450 (mock sample). Clones were ordered based on ELISA 1 data.

[2] = target: T1, native soluble IL-6R in human plasma; test: ELISA 3, periplasmic extract; competitor BN-12; human plasma
Experimental: as §1

[3] = target: soluble IL-6R in cynomolgous plasma (cynomolgus monkey, UniProt A0A2K5WN54); test: ELISA 2, periplasmic extract; competitor IL-6; cyno plasma
Experimental: as §1

Row | Binder | OD450 ratio sample/blank [1] | OD450 ratio sample/blank [2] | OD450 ratio sample/blank [3]
1 | IL6RPMP107C3 (VHH) VHH: EVQLVESGGGLVQAGGSLNLSCNASGDIGSINAMGWHRQAPGQQREWVAVITDTDSTIYPDSVKGRFAISRDGAKNTVHLRMSSLKPEDTAVYYCNAYQAGWGDYWGQGTQVTVSS | 0.438 | 1.06 | 0.904
2 | IL6RPMP104A8 (VHH) VHH: EVQLVESGGGLVQAGGSLRLSCTASGRTFSDYDMGWFRQAPGKEREFVAVIDTNGGHTLTVGSVKGRFAISSDNAKNTVYLQMNSLVPEDTAVYTCAAGAWSSLRKTAASYWGQGTQVTVSS | 2.04 | 0.973 | 0.725
3 | IL6RPMP103A2 (VHH) VHH: EVQLVESGGGLVQPGGSLRLSCAASGSIFSINTMGWYRQVPGKQRELVATVRSGSITNYADSVQDQFTITRDIDENTVYLQMNSLKPEDTAVYYCLTRASVPGRGYQDYWGQGTQVTVSS | 2.04 | 0.993 | 1.09
4 | IL6RPMP103A5 (VHH) VHH: EVQLVESGGGLVQAGDSLRLSCVASGLPFSTLHMGWFRQAPGKEHESVSAISSDGGSEYYAGSVKGRFTISRDNAKNTVYLQMNSLKPEDTAVYYCAADPRRIGANIKYSDYWGQGTQVTVSS | 2.12 | 0.943 | 0.859
5 | IL6RPMP100D11 (VHH) VHH: EVQLVESGGGLVQAGDSLRLSCLASGRSFKDDAMGWFRQAPGKEREFVSGIDWRGNIVDAESVKGRFTISRENAKNTLYLQMNHLKPEDTAVYYCAASSVFSDLRYRKNPKYWGQGTQVTVSS | 1.9 | 0.969 | 0.962
6 | IL6RPMP103D7 (VHH) VHH: EVQLVESGGGLVEAGGSLRLSCAAAGRTLSSYSMAWFRQAPGKEREFVAIIRGNPSRTYHSDSVKGRFTASRDNAKNTVYLQMNRLEPEDTAVYYCAADPPPFASDYSAPQSYDYWGQGTQVTVSS | 0.355 | 0.98 | 0.0821
7 | IL6RPMP101G11 (VHH) VHH: EVQLVESGGGLVQPGGSLRLSCAASASGFTLDYYAIGWFRQAPGKEREGVSCISSTDGSTYYADSVKGRFTISRDNAKNTVYLQMNSLNPEDTGVYTCAAVLTTAQAMGVPTRSYEYDYWGQGTQVTVSS | 0.227 | 0.468 | 0.0538

Now from value to binder:

Row | OD450 ratio sample/blank [1] | OD450 ratio sample/blank [2] | OD450 ratio sample/blank [3] | Binder
8 | 2.06 | 1 | 0.766 | IL6RPMP104B9 (VHH) VHH: EVQLVESGGGLVQAGGSLRLSCTASGRTFSDYDMGWFRQAPGKERECVAIIDTNGDNTLIVGSVKGRFAISSDNAKNTVYLQMNSLLPEDTAVYTCAAGVWSSLRHTAANYWGQGTQVTVSS
9 | 0.0703 | 0.947 | 0.0273 | IL6RPMP101F6 (VHH) VHH: EVQLVESGGGLVQAGGSLRLSCAASGSIFSIKAMGWYRQAPGKQRELVARITSGGSTYYADSVKGRFTISRDNAKNTVYLQMNSLKPEDTAVFYCNAIVTDSDYDLGNDYWGQGTQVTVSS
10 | 2.04 | 1.01 | 0.993 | IL6RPMP104E7 (VHH) VHH: EVQLVESGGGLVQAGGSLRLSCAAGGSIFSINAMGWYRQAPGKQRELVASITSGGSTTYADSVKGRFTISRDNAKDTVYLQMNSLKPEDTAVYYCNAHIRFPFPNDYWGQGTQVTVSS
11 | 0.402 | 0.972 | 1.05 | IL6RPMP101B3 (VHH) VHH: EVQLVESGGGLVQAGGSLRLSCAASGSIFRINAMGWYRQAPGKQRELVAAAISGGSTNYADFVKGRFTISRDNAKNTVYLQMNSLKPEDTAVYYCNALVVSHNYSDYVPFPDDYWGQGTQVTVSS
